Measurements: EP4467153A1, “CONSTRAINED PEPTIDE INHIBITORS OF LRRK2-FADD INTERACTIONS” (University of Georgia Research Foundation, Inc., priority 2023, dated 2024)
Positions of bridges follow the written chain, without caps; N, C: chain ends. Non-standard residues stand in square brackets, D forms with d. Primed or numbered codes have the meaning given here. FAM = 5(6)-carboxyfluorescein label; S5 = C=CCCC[C@](C)(N)C(=O)O; PEG3′ = PEG3 spacer

Target: T1, LRRK2-FADD PPI (Flag G2019S-LRRK2 and V5-FADD) (Homo sapiens, UniProt Q5S007, G2019S)
T1 construct: expressed in transfected cells; host or cells: HEK293T
Assay: Co-immunoprecipitation of LRRK2-FADD interaction in transfected HEK293T cells
Format: cell-based
Details: 10 µM, 48 hr, normalized to immunoprecipitated Flag-LRRK2
Experimental: It was then assessed whether this peptide library (FARM1-FARM5) could disrupt the interaction between over-expressed Flag G2019S-LRRK2 and V5-FADD by co-immunoprecipitation. Flag-LRRK2 was purified on anti-Flag resin and the eluate as well as the protein extract (input) separated by SDS-PAGE, with the membranes probed for V5 (FADD) and Flag (LRRK2). The transfected cells were treated with the indicated peptide (10 µM) for a total of 48 hr prior to collection. […] To minimize the use of primary mouse cortical neuron cultures, FARMS was used in subsequent experiments to examine the potential neuroprotective effects of LRRK2-FADD disruption.
Assessment of LRRK2-FADD interaction. Co-immunoprecipitation was undertaken to determine the effects of the stapled peptides on the LRRK2-FADD PPI, as previously described. Briefly, 10cm plates of HEK293T cells transiently expressing Flag-WT or mutant LRRK2 and V5-FADD (at a 3:1 ratio), and treated with different concentrations of FARM peptides (as indicated in the Figure legends), were washed in PBS and lysed in co-IP buffer (20mM HEPES, pH7.4; 150 mM NaCl; 0.1% NP40; 2 mM EGTA; 2 mM MgCl2; 10% glycerol, pH 7.2; protease and phosphatase cocktail [Agilent Technologies]) for 30 min on ice followed by 15 strokes with a Dounce glass homogenizer, and centrifugation at 13000 rpm for 15 min to remove cellular debris. Following pre-clearing with IgG-coupled beads, 40 µl of washed anti-Flag resin (Sigma-Aldrich) per mg of protein was added and the samples incubated under rotation overnight at 4°C. The following morning, the beads were centrifuged and washed a total of 5X with coIP buffer, before elution in 2X SDS sample buffer at 95°C for 10 min. The eluate (and input) was separated by SDS-PAGE and membranes probed with anti-Flag (LRRK2) and V5 (FADD).

T1 sequence (Q5S007 whole entry G2019S): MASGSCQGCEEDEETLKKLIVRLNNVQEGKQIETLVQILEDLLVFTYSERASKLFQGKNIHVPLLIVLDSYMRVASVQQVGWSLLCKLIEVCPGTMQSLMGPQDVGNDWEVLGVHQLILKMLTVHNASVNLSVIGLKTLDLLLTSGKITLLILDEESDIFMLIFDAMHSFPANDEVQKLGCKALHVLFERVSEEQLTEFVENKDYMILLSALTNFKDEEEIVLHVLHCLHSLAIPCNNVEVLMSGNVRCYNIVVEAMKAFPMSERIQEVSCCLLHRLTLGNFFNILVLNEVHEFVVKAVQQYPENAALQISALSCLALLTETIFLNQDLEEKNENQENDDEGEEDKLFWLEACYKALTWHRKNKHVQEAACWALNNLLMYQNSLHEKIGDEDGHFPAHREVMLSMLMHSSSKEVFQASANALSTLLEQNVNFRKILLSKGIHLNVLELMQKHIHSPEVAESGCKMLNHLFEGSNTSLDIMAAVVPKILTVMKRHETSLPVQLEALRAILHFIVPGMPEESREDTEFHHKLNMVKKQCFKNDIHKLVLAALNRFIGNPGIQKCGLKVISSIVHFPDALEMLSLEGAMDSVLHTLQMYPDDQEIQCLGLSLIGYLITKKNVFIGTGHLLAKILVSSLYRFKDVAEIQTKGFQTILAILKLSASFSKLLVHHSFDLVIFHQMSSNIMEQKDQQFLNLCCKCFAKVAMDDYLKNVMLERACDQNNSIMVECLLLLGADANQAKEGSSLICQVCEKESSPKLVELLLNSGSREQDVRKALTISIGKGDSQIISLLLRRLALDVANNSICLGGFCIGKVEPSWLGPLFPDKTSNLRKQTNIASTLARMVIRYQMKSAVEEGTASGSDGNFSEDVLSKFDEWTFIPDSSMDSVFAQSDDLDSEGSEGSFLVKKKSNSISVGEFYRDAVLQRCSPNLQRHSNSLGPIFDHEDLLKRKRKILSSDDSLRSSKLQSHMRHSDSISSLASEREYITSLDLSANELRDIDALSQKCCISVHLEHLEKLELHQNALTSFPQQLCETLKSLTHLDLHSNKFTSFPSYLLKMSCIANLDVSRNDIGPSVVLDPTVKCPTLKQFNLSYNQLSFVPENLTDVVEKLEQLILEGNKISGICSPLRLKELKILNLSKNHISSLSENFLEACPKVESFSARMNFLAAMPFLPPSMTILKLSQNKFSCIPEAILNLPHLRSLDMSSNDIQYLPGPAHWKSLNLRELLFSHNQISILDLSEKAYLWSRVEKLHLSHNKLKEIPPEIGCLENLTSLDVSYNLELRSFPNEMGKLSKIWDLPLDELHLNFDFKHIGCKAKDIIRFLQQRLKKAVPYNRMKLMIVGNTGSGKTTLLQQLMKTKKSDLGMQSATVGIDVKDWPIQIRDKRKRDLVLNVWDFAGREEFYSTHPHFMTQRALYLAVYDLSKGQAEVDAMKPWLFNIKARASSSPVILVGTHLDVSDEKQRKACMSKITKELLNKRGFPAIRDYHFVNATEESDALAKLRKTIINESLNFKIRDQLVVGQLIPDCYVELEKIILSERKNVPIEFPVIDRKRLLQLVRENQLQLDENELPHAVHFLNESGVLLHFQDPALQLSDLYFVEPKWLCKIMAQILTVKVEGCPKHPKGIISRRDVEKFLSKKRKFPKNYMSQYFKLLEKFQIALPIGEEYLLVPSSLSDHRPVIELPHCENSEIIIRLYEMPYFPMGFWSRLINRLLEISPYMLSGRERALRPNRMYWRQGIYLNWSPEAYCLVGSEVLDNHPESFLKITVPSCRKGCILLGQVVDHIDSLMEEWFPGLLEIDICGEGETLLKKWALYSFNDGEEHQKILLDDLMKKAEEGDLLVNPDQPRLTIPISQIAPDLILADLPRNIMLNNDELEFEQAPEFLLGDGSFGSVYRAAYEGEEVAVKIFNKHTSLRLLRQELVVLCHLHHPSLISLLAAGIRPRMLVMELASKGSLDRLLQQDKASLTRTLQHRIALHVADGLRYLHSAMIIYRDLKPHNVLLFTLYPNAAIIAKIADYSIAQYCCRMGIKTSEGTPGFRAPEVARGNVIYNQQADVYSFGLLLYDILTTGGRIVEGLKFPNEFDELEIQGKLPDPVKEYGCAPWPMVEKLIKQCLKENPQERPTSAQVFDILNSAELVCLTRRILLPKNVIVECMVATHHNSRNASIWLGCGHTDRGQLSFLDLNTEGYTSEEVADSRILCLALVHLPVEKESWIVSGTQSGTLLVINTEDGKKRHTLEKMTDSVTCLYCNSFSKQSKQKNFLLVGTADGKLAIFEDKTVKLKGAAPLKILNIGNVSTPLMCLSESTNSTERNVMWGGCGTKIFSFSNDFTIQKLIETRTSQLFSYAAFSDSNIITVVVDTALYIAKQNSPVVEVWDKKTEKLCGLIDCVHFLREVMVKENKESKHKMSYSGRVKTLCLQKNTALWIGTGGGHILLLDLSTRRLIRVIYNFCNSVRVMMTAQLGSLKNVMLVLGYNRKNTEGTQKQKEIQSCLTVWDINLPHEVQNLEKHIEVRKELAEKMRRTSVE

| Substance | amount of FADD that co-purified with G2019S-LRRK2 (LRRK2-FADD interaction) |
| --- | --- |
| FARM2: FAM-labeled hydrocarbon-stapled FADD Armadillo domain peptide; mass fits SEQ ID NO. 3 KVADLXQEVXQARDLQNRSK ({FAM-PEG3′}-KVADL[S5]QEV[S5]QARDLQNRSK-NH2; staple 6-10; not fully specified) [FAM-labeled hydrocarbon-stapled FADD Armadillo domain peptide; 3 KVADLXQEVX…] | to a lesser extent |
| FARM3: FAM-labeled hydrocarbon-stapled FADD Armadillo domain peptide; mass fits SEQ ID NO. 4 KVADLVQEXQQAXDLQNRSK ({FAM-PEG3′}-KVADLVQE[S5]QQA[S5]DLQNRSK-NH2; staple 9-13; not fully specified) [FAM-labeled hydrocarbon-stapled FADD Armadillo domain peptide; 4 KVADLVQEXQQAXDLQNRSK] | reduced the interaction between LRRK2 and FADD |
